Laboratory results published in the Human Domainome abundance scans (Beltran et al. 2025).
± gives the uncertainty stated by the source.

B1: Nucleolar transcription factor 1, residues 408 to 469; numbered along this chain, P17480 (parent)
chain: KRPVSAMFIFSEEKRRQLQEERPELSESELTRLLARMWNDLSEKKKAKYKAREAALKAQSER
B2: Zinc finger MYM-type protein 3, residues 589 to 668; numbered along this chain, Q14202 (parent)
chain: LSCHYCHSLFSGKPEVLDWQDQVFQFCCRDCCEDFKRLRGVVSQCEHCRQEKLLHEKLRFSGVEKSFCSEGCVLLYKQDF

Variants of: B1
Experiment: abundance fitness (aPCA) (normalised: wild type 0, dead -1); higher = more abundant; growth selection in yeast, the domain comes from the species named
Conditions: Homo sapiens

Abundance fitness: each site, then its substitutions
E13: D -0.04 ± 0.1; M -0.124 ± 0.071; L -0.277 ± 0.063; F -0.359 ± 0.13; A -0.205 ± 0.051; K -0.106 ± 0.073; N -0.344 ± 0.14; I -0.177 ± 0.16; G -0.22 ± 0.043; H -0.22 ± 0.19; C -0.175 ± 0.067
V4: Q -0.099 ± 0.08; N -0.104 ± 0.18; L -0.031 ± 0.055; P -0.238 ± 0.11; S -0.082 ± 0.053; I -0.018 ± 0.065; M -0.031 ± 0.079; F -0.156 ± 0.078; C -0.213 ± 0.08; A -0.061 ± 0.074; H -0.172 ± 0.15; W -0.602 ± 0.072; E 0.037 ± 0.11; R -0.24 ± 0.055; K -0.053 ± 0.067; G -0.094 ± 0.047; T -0.111 ± 0.078; Y -0.099 ± 0.069; D -0.011 ± 0.085
F10: L -0.731 ± 0.071; K -0.857 ± 0.1; T -0.751 ± 0.087; C -1.04 ± 0.17; V -1.09 ± 0.07; M -0.522 ± 0.077; D -1.01 ± 0.38; S -0.648 ± 0.061; I -0.948 ± 0.11; E -0.875 ± 0.084; H -0.258 ± 0.47; Q -0.82 ± 0.072; Y 0.039 ± 0.28; P -0.677 ± 0.089; G -0.683 ± 0.055; A -0.829 ± 0.067; N -0.562 ± 0.21; R -0.88 ± 0.058; W -0.075 ± 0.062
E12: Q -0.13 ± 0.065; C -0.19 ± 0.11; W -0.253 ± 0.059; K -0.059 ± 0.065; Y -0.251 ± 0.087; T -0.069 ± 0.078; V -0.163 ± 0.052; S -0.028 ± 0.049; H -0.169 ± 0.09; M -0.089 ± 0.072; F -0.315 ± 0.081; I -0.201 ± 0.1; P -0.738 ± 0.04; D -0.092 ± 0.098; N -0.048 ± 0.1; L -0.182 ± 0.049; G -0.175 ± 0.056
R2: C -0.178 ± 0.095; Y 0.01 ± 0.16; S -0.072 ± 0.068; W -0.453 ± 0.11; Q -0.317 ± 0.1; T -0.143 ± 0.13; I -0.158 ± 0.17; V -0.049 ± 0.056; A -0.151 ± 0.065; H -0.025 ± 0.096; F -0.043 ± 0.069; G -0.204 ± 0.062; M -0.13 ± 0.073; D -0.109 ± 0.15; L -0.215 ± 0.059; N -0.003 ± 0.072; E -0.132 ± 0.12
F8: V -0.027 ± 0.055; S -0.039 ± 0.053; R 0.005 ± 0.045; E 0.02 ± 0.07; M -0.003 ± 0.053; Q -0.236 ± 0.11; G 0.029 ± 0.045; T -0.066 ± 0.093; D -0.023 ± 0.07; I -0.02 ± 0.1; C -0.069 ± 0.11; W -0.03 ± 0.059; K -0.004 ± 0.07; N 0.024 ± 0.09; A -0.092 ± 0.12; Y -0.001 ± 0.14; P -0.235 ± 0.061
M7: P -0.053 ± 0.077; G -0.131 ± 0.045; K -0.015 ± 0.052; E -0.045 ± 0.065; Q 0.012 ± 0.076; H -0.028 ± 0.16; N -0.086 ± 0.16; Y -0.012 ± 0.086; L -0.086 ± 0.055; F -0.015 ± 0.2; D -0.144 ± 0.11; C -0.066 ± 0.083; I -0.151 ± 0.11; R -0.043 ± 0.047; S -0.056 ± 0.049; A -0.038 ± 0.067; W -0.178 ± 0.046; V -0.058 ± 0.06; T -0.22 ± 0.068
A6: M -0.418 ± 0.094; V -0.488 ± 0.065; E -0.17 ± 0.067; D -0.191 ± 0.083; R -0.401 ± 0.047; L -0.661 ± 0.06; G -0.045 ± 0.059; Q -0.331 ± 0.064; C -0.225 ± 0.11; W -0.453 ± 0.076; S -0.191 ± 0.076; T -0.44 ± 0.088; P -0.306 ± 0.15; H -0.534 ± 0.12; F -0.573 ± 0.093; Y -0.155 ± 0.2
K1: E -0.139 ± 0.075; N -0.191 ± 0.17; G -0.08 ± 0.076; D 0.006 ± 0.091; L -0.048 ± 0.16; C -0.367 ± 0.18; Q -0.196 ± 0.29; A -0.287 ± 0.14; F -0.245 ± 0.14; T -0.06 ± 0.096; H -0.212 ± 0.1; W -0.205 ± 0.072; S -0.276 ± 0.14; I 0 ± 0.25; V -0.136 ± 0.11; Y -0.105 ± 0.32; M 0.004 ± 0.11; R -0.199 ± 0.084
S11: F -0.029 ± 0.066; T -0.013 ± 0.05; Q -0.027 ± 0.073; A -0.07 ± 0.081; L -0.049 ± 0.049; M 0.093 ± 0.06; E -0.023 ± 0.067; R -0.13 ± 0.043; C -0.102 ± 0.12; W -0.08 ± 0.056; H -0.146 ± 0.18; G -0.028 ± 0.043; V 0.024 ± 0.049; Y 0.011 ± 0.073; P -1.16 ± 0.11
S5: G -0.031 ± 0.051; M -0.196 ± 0.084; D -0.02 ± 0.061; I -0.178 ± 0.096; N 0.047 ± 0.12; K -0.041 ± 0.085; V -0.187 ± 0.064; W -0.455 ± 0.052; Y -0.146 ± 0.15; E 0.042 ± 0.094; Q -0.115 ± 0.087; P -0.112 ± 0.09; C -0.148 ± 0.15; L -0.164 ± 0.048; T -0.042 ± 0.057
P3: T 0.021 ± 0.095; Y -0.071 ± 0.082; V -0.02 ± 0.09; D -0.04 ± 0.12; H -0.061 ± 0.088; A -0.137 ± 0.068; S -0.014 ± 0.052; E -0.059 ± 0.099; Q -0.011 ± 0.058; C -0.264 ± 0.1; R -0.095 ± 0.033; W -0.297 ± 0.066; I 0.036 ± 0.12; G -0.083 ± 0.054; L -0.068 ± 0.068; F -0.021 ± 0.079
I9: G -0.43 ± 0.046; P -0.365 ± 0.079; N -0.223 ± 0.12; Q -0.202 ± 0.14; D -0.484 ± 0.091; A -0.095 ± 0.068; F -0.113 ± 0.15; C -0.074 ± 0.077; T -0.217 ± 0.074; E -0.38 ± 0.12; S -0.191 ± 0.073; H -0.518 ± 0.38; Y -0.181 ± 0.1; R -0.172 ± 0.046; K -0.258 ± 0.089; L -0.027 ± 0.064; V -0.131 ± 0.058

Variants of: B2
Experiment: as above
Conditions: Homo sapiens

Abundance fitness, by site and new letter:
D79: G 0.187 ± 0.074; S 0.241 ± 0.15; W -0.378 ± 0.19; V -0.531 ± 0.23; T -0.07 ± 0.14; P 0.119 ± 0.22; Q 0.475 ± 0.17; A 0.089 ± 0.12; R 0.351 ± 0.11; K 0.856 ± 0.22; E 0.018 ± 0.15; L 0.034 ± 0.13
K77: T -0.108 ± 0.16; A -0.78 ± 0.19; R -0.455 ± 0.14; Q -0.149 ± 0.38; G -0.404 ± 0.12; E -0.406 ± 0.18; L -0.304 ± 0.18; S -0.495 ± 0.23; F -0.394 ± 0.39; P -0.71 ± 0.22; V -0.193 ± 0.14
L75: K 0.318 ± 0.23; C 0.373 ± 0.21; G 0.276 ± 0.073; Q 0.573 ± 0.18; P -0.268 ± 0.2; H -0.295 ± 0.3; S 0.258 ± 0.11; W -0.561 ± 0.13; A 0.615 ± 0.073; E 0.268 ± 0.11; M 0.176 ± 0.41; T -0.078 ± 0.12; V -0.551 ± 0.15; N 0.227 ± 0.14; D 0.492 ± 0.17
Y76: W -0.542 ± 0.22; M -0.524 ± 0.34; G -0.28 ± 0.098; V -0.317 ± 0.14; N 0.757 ± 0.38; T -0.038 ± 0.22; L -0.663 ± 0.24; K -0.048 ± 0.13; H 0.329 ± 0.24; Q -0.179 ± 0.15; S -0.473 ± 0.16; E -0.107 ± 0.11; D -0.176 ± 0.17
V73: D -0.521 ± 0.24; Q -0.309 ± 0.2; T -0.167 ± 0.19; S 0.167 ± 0.093; W -0.167 ± 0.18; L 0.268 ± 0.11; G -0.188 ± 0.11; E -0.027 ± 0.17; A 0.236 ± 0.086; R 0.149 ± 0.082
L74: E 0.662 ± 0.091; T 0.151 ± 0.13; G 0.183 ± 0.099; M 0.292 ± 0.11; Q 0.244 ± 0.15; I -0.381 ± 0.35; A 0.404 ± 0.077; D 0.145 ± 0.13; H 0.041 ± 0.3; N 0.453 ± 0.22; S -0.081 ± 0.19; Y -0.446 ± 0.38; V -0.195 ± 0.099; P -0.205 ± 0.43; W 0.081 ± 0.13; R 0.484 ± 0.08
Q78: P -0.595 ± 0.21; D 0.567 ± 0.22; M -0.372 ± 0.26; C -0.892 ± 0.35; L 0.466 ± 0.12; E 0.018 ± 0.17; V -0.833 ± 0.16; I -0.34 ± 0.42; G -0.292 ± 0.1; R 0.113 ± 0.076; W -0.698 ± 0.21; A 0.034 ± 0.11; S 0.069 ± 0.15; H 0.565 ± 0.25; T -0.188 ± 0.17
C72: W -0.53 ± 0.17; T -0.869 ± 0.22; L -1.04 ± 0.23; K -0.33 ± 0.24; E -0.644 ± 0.28; V -0.647 ± 0.15; Q -0.317 ± 0.41; S -0.935 ± 0.29; M -0.514 ± 0.28; R -0.781 ± 0.17; P -0.725 ± 0.39; A -0.525 ± 0.2
F80: W -0.146 ± 0.38; V 0.281 ± 0.094; S 0.194 ± 0.14; R 0.522 ± 0.082; T 0.652 ± 0.24; A 0.288 ± 0.16; C 0.093 ± 0.2; G 0.033 ± 0.14; M 0.294 ± 0.26; L 0.5 ± 0.12; P 0.525 ± 0.22
G71: T 0.414 ± 0.11; V -0.043 ± 0.11; W -0.219 ± 0.22
